In patent EP1516629B1:

What was measured:
human CD18 (human) = human CD18 (human) (UniProt P05107); assay: cell-based or functional assay
rhesus CD18 (rhesus) [1] = target: rhesus CD18 (rhesus) (UniProt H9Z8N5); assay: cell-based or functional assay
rhesus CD18 (rhesus) [2] = target: rhesus CD18 (rhesus) (UniProt H9Z8N5); assay: saturation binding, rhesus leukocytes, donor 1, Kd(app)
rhesus CD18 (rhesus) [3] = target: rhesus CD18 (rhesus) (UniProt H9Z8N5); assay: saturation binding, rhesus leukocytes, donor 2, Kd(app)

Sequence of human CD18 (human) (P05107 23-769): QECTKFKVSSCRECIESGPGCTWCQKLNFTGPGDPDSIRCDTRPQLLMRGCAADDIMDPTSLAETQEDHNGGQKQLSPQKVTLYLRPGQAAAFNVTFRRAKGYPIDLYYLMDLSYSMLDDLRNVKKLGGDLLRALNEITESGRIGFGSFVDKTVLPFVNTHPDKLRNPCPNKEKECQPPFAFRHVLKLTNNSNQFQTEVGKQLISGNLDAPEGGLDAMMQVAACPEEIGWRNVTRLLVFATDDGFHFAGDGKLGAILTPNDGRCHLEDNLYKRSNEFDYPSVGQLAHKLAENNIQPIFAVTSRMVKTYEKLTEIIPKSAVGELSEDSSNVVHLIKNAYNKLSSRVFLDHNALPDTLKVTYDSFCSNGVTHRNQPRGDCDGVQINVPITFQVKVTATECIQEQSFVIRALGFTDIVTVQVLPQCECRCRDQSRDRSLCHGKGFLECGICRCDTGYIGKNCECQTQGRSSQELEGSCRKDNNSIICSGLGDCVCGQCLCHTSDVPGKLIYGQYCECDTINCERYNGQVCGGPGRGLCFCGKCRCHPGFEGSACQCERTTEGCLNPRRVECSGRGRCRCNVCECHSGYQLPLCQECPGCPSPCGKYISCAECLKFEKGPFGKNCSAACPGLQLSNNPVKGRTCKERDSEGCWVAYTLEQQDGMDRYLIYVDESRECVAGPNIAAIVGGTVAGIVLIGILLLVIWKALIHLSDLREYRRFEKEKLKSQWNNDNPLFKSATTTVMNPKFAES

IC50, blocking of cell adhesion, Rh/HuCD11a:HuK (human CD18 (human)): 1.4 nM | IC50, blocking of cell adhesion, RhLy:HuICAM (rhesus CD18 (rhesus) [1]): 1.2 nM | IC50, blocking of cell adhesion, RhLy:HuK (rhesus CD18 (rhesus) [1]): 1.6 nM | Kd (rhesus CD18 (rhesus) [2]): 3.9 nM | Kd (rhesus CD18 (rhesus) [3]): 4.5 nM
Substance: murine anti-human CD18 antibody MHM23
